Measured values: US11491206B1, “Compositions and methods for the treatment of trail-resistant cancer” (Duke University, priority 2018, dated 2022)
Several values for one entry are separate records, joined by “and”; a condition that tells them apart may be missing. Equal values may be shown once.

Columns and labels:
[1] = test system: HCT116, HCT15, Colo205, DLD-1, and Lovo; assay: Single-agent cytotoxicity (MTT) in TRAIL-sensitive CRC cell lines; assay type: cell-based, human
Experimental: (§1) For single-agent cytotoxicity evaluation, DRA and ELP-DRA fusion proteins were tested in vitro using a colorimetric formazan assay (MTT) as follows. […] The cells were then treated with 10 μL additional media containing a serial dilution of the drug(s) of interest. All treatments were done in triplicate. […] The inhibition of cell viability was determined using measurements of the absorbance at 490 nm, which is the absorbance maximum of the formazan product. The dose-response curves were generated by plotting inhibition as a function of compound concentration.

[2] = test system: RKO cells; assay: Flow cytometry Annexin V apoptosis quantification in RKO; assay type: cell-based, human; details: for % positive Annexin V+: single replicate, listed as SA
Experimental: Flow Cytometry for Annexin-V Apoptosis Quantification. Cells were seeded in six-well plates overnight. The next day, cells were treated with the indicated amount of drug(s) or vehicle control (DMSO). Incubation time was 15 h for etoposide or 48 h for DRA alone, or DRA with sensitizers. To prepare samples for flow cytometry, each well of cells was washed twice with ice-cold PBS and resuspended in 1× annexin V binding buffer (10 mM HEPES, 140 mM NaCl, 2.5 mM CaCl2, pH 7.4) BD Biosciences). Allophycocyanin (APC)-conjugated Annexin V was used to measure surface exposure of phosphatidylserine and 7-aminoactinomycin D (7-AAD) was used as a viability probe (BD Biosciences). Cell samples were analyzed at 20,000 counts/sample using BD FACSVantage SE.

[3] = test system: HT29 cells; assay: Single-agent cytotoxicity (MTT) in HT29; assay type: cell-based, human
Experimental: as §1

[4] = target: mouse death receptor (Mus musculus, UniProt Q9QZM4); details: previous studies; cited from earlier work
[5] = test system: CRC119; assay: Single-agent cytotoxicity in patient-derived CRC119; assay type: cell-based, human; details: CRC119s
Experimental: as §1

[6] = test system: T84; assay: Single-agent cytotoxicity (MTT) in T84; assay type: cell-based, human
Experimental: as §1

[7] = in vivo; cited from earlier work
[8] = test system: CRC247; assay: Single-agent cytotoxicity in patient-derived CRC247; assay type: cell-based, human
Experimental: as §1

[9] = test system: CRC12x; assay: Single-agent cytotoxicity in patient-derived CRC12x; assay type: cell-based, human
Experimental: as §1

[10] = test system: RKO cells; assay: Single-agent cytotoxicity (MTT) in RKO; assay type: cell-based, human
Experimental: as §1

Chain of mouse death receptor (Q9QZM4 53-381): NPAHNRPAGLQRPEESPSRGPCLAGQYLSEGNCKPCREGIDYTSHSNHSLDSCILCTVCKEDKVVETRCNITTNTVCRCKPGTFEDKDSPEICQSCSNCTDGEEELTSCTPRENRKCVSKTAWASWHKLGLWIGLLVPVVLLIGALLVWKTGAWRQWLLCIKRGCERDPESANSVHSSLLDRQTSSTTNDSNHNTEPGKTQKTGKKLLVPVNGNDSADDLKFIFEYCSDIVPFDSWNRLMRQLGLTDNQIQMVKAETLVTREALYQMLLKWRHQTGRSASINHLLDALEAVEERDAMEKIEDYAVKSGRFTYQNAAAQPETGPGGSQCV

B1: DRA monomer: single Tn3 type III fibronectin domain engineered to bind DR5 (protein)
chain: GAIEVKDVTDTTALITWAKPWVDPPPLWGCELTYGIKDVPGDRTTIDLQQKHTAYSIGNLKPDTEYEVSLICFDPYGMRSKPAKETFTT
With B1 the “induction of cell death” value ([1]; sensitive cell lines) was “do not induce cell death”.

B2: DRA: hexameric protein of Tn3 fibronectin type III domains (SEQ ID NO: 1) binding DR5, joined by glycine-serine linkers (protein)
chain: GAIEVKDVTDTTALITWAKPWVDPPPLWGCELTYGIKDVPGDRTTIDLQQKHTAYSIGNLKPDTEYEVSLICFDPYGMRSKPAKETFTTGGGGSGGGGSGGGGSGAIEVKDVTDTTALITWAKPWVDPPPLWGCELTYGIKDVPGDRTTIDLQQKHTAYSIGNLKPDTEYEVSLICFDPYGMRSKPAKETFTTGGGGSGGGGSGGGGSGAIEVKDVTDTTALITWAKPWVDPPPLWGCELTYGIKDVPGDRTTIDLQQKHTAYSIGNLKPDTEYEVSLICFDPYGMRSKPAKETFTTGGGGSGGGGSGGGGSGAIEVKDVTDTTALITWAKPWVDPPPLWGCELTYGIKDVPGDRTTIDLQQKHTAYSIGNLKPDTEYEVSLICFDPYGMRSKPAKETFTTGGGGSGGGGSGGGGSGAIEVKDVTDTTALITWAKPWVDPPPLWGCELTYGIKDVPGDRTTIDLQQKHTAYSIGNLKPDTEYEVSLICFDPYGMRSKPAKETFTTGGGGSGGGGSGGGGSGAIEVKDVTDTTALITWAKPWVDPPPLWGCELTYGIKDVPGDRTTIDLQQKHTAYSIGNLKPDTEYEVSLICFDPYGMRSKPAKETFTTGGGGSGGGGSGGGGSHHHHHHHH
In the case of B2, the “Average % positive Annexin V+” value ([2]; 0.5 pM SA) is reported as 4.90%, the “% positive Annexin V+” value ([2]; 0.5 pM SA) is reported as 5.32% and 5.86% and 3.53% and the “Average % positive Annexin V+” value ([2]; 1 pM SA) is reported as 6.01%. The “% positive Annexin V+” value ([2]; 1 pM SA) was 6.97% and 5.22% and 5.85%, the “increase in potency of DRA compared to TRAIL (T/D fold, EC50-TRAIL/EC50-DRA)” value ([1]; TRAIL-sensitive cell lines) was 70-1700 times and the EC50 ([1]; all tested TRAIL-sensitive cell lines) was “picomolar range”. The cytotoxicity [3] was “induces cytotoxicity”, the “interaction with mouse death receptor” value [4] was “no interaction” and the EC50 [5] was 0.0261 nM. The cytotoxicity [6] was “induces cytotoxicity”, the half-life [7] was “approximately 36 min” and the cytotoxicity [8] was “highly resistant”. For the same molecule, the EC50 [9] was 0.0098 nM and the EC50 [10] was > 100 nM.
